Among the data in doi:10.1101/2021.10.03.462214 are Kd values, retold here.

The assay addresses human 26S proteasome (human) (UniProt P60900).

As usually defined, the Kd is a measure of binding affinity in units of concentration. A higher Kd goes with weaker binding. “K48 linked tetra-ubiquitin chains (from UniProt P0CG47 1-76)” registered a Kd of 0.239 µM. In other words, the sub-micromolar range.
